Results: paper PMC12708450

Molecular target: PD-L1 (recombinant human) (Homo sapiens) (UniProt Q9NZQ7)
Assay: ELONA
Conditions: 1:1 hyperbolic fit; internal C3 spacer (iSpC3) between DNA nt 63 and RNA nt 1 (strand position 64); nt 1-63 DNA, nt 64-82 RNA; strand 2 RNA; ELONA: PD-L1 coated in PBS at 4 C overnight; blocked with PBS, 0.1% Tween 20, 1% BSA; wash PBS, 1 mM MgCl2, 0.1% Tween 20, 0.1% BSA; oligo heated 95 C 10 min …

Sequence of PD-L1 (recombinant human) (Homo sapiens) (Q9NZQ7 19-238): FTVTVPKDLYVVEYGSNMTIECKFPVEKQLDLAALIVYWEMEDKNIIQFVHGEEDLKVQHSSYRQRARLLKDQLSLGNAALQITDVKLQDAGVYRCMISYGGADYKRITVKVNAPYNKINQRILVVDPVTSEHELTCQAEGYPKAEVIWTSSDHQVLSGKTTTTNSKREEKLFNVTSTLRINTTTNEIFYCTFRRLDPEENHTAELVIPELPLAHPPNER

**Q.** With “ACCGACCGTGCTGGACTCATCTCGCTTTTTTCACGGTCCACACTACTATGAGCGAGCCTGGCGGGAAUGACCUCUUUCACCA / UGGUGAAAGAGGUCAUUCC [PD-L1 aptamer-CD47 siRNA chimera]” as the sequence, how does the Kd read?
**A.** 174 nM
